Laboratory results: PMC13649775 (Nature Communications, 2026)
Where no end group is shown, it is not given here.

T1: LigIV DBD (Met1-Ile240) (UniProt P49917 1-240)
T1 construct: source: E. coli Rosetta2 (DE3), purified (Ni-NTA, TEV, SEC); not shown: His tag, N-terminal, cleaved
T1 sequence (looked up): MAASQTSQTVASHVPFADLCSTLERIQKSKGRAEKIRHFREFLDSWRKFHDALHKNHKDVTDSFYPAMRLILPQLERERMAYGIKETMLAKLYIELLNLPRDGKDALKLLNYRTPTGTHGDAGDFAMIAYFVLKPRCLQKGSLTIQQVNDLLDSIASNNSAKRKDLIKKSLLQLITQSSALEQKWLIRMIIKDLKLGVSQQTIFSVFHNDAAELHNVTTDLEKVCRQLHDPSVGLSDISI


Molecular target: T1, LigIV DBD (Met1-Ile240)
Assay: fluorescence polarisation; 25 nM FAM-labeled peptide constant, LigIV DBD 5 nM–200 μM; 15 mM Tris pH 7.5, 65 mM NaCl, 0.7 mM βME; 20 min
Settings: both partners purified

Row | Kd [µM] | Binder
1 | 1.5 to 4 | {FAM}-VPQWEVFFKRN (Artemis, residues 486-496; also called Artemis peptide; source: synthetic peptide (GenScript)) [FAM-labeled Artemis 486-496 peptide]
2 | 29 to 30 | {FAM}-MSGWESYYKTE (Ku70, residues 1-11; The results call the modelled stretch 'Ku70 CTR', but the peptide is residues 1-11; also called Ku70 peptide; source: synthetic peptide (GenScript)) [FAM-labeled Ku70 1-11 peptide]
